{"source": "patent US20030119727A1", "about": "(Genentech, published 2003)", "binders": {"B1": {"name": "TF189 (peptide)", "chain": "ALCDDPRVDRWYCQLVEG"}, "B2": {"name": "TF162 (peptide)", "chain": "ALCDDPRVSRWYCQFVEG"}, "B3": {"name": "TF109 (peptide)", "chain": "ALCDDPAVDRWYCQFVEG"}, "B4": {"name": "TF318 (peptide)", "chain": "ATCDDPRVDRWYCQFVEG"}, "B5": {"name": "TF115 (peptide)", "chain": "ALCDDPRVDRWYCQAVEG"}, "B6": {"name": "TF95 (peptide)", "chain": "ALCDRPRVDRWYCQFVEG"}, "B7": {"name": "TF161 (peptide)", "chain": "ALCDDPRVQRWYCQFVEG"}, "B8": {"name": "TF127 (peptide)", "chain": "ALCRDPRVDRWYCQFVEG"}, "B9": {"name": "TF121 (peptide)", "chain": "ALCDDPRIDRWYCQFVEG"}, "B10": {"name": "TF146 (peptide)", "chain": "ALCDDPRVDRWYCQYVEG"}, "B11": {"name": "TF114 (peptide)", "chain": "ALCDDPRVDRAYCQFVEG"}, "B12": {"name": "TF96 (peptide)", "chain": "ALCDDPEVDRWYCQFVEG"}, "B13": {"name": "TF144 (peptide)", "chain": "ALCDDPRVDRWFCQFVEG"}, "B14": {"name": "TF90 (peptide)", "chain": "ALCDDPRVDRWYCQF"}, "B15": {"name": "TF179 (peptide)", "chain": "ALCDDPRVDRWYCAFVEG"}, "B16": {"name": "TF180 (peptide)", "chain": "ALCDDPRVDRWYC"}, "B17": {"name": "TF106 (peptide)", "chain": "ALCDNPRVDRWYCQFVEG"}, "B18": {"name": "TF61 (peptide)", "chain": "LCDDPRIDRWYCMF"}, "B19": {"name": "TF145 (peptide)", "chain": "ALCDDPRVDRWACQFVEG"}, "B20": {"name": "TF110 (peptide)", "chain": "ALCDDPRVARWYCQFVEG"}, "B21": {"name": "TF119 (peptide)", "chain": "ALADDPRVDRWYAQFVEG"}, "B22": {"name": "TF130 (peptide)", "chain": "ALCDDPRVDKWYCQFVEG"}, "B23": {"name": "TF63 (peptide)", "chain": "LCDDPRIDRWYCQF"}, "B24": {"name": "TF111 (peptide)", "chain": "ALCDDPRVERWYCQFVEG"}, "B25": {"name": "TF89 (peptide)", "chain": "ALCDDPRVDRWYCQFV"}, "B26": {"name": "TF320 (peptide)", "chain": "AKCDDPRVDRWYCQFVEG"}, "B27": {"name": "TF178 (peptide)", "chain": "ALCDDARVDRWYCQFVEG"}, "B28": {"name": "TF319 (peptide)", "chain": "AMCDDPRVDRWYCQFVEG"}, "B29": {"name": "TF191 (peptide)", "chain": "ALCDDPRVDRWYCQQVEG"}, "B30": {"name": "TF128 (peptide)", "chain": "ALCDDPRLDRWYCQFVEG"}, "B31": {"name": "TF131 (peptide)", "chain": "ALCDDPRVDRFYCQFVEG"}, "B32": {"name": "TF132 (peptide)", "chain": "ALCDDPRVDRWYCYFVEG"}, "B33": {"name": "TF77 (peptide)", "chain": "LCDDPRVDRWYCQFVEG"}, "B34": {"name": "TF112 (peptide)", "chain": "ALCDDPRVDAWYCQFVEG"}, "B35": {"name": "TF74 (peptide)", "chain": "VGALCDDPRVDRWYCQFVEG"}, "B36": {"name": "TF129 (peptide)", "chain": "ALCDDPRADRWYCQFVEG"}, "B37": {"name": "TF98 (peptide)", "chain": "ALCDDPRVDQWYCQFVEG"}, "B38": {"name": "TF75 (peptide)", "chain": "VGALCDDPRVDRWYCQFVE"}, "B39": {"name": "TF97 (peptide)", "chain": "ALCDDPRVNRWYCQFVEG"}, "B40": {"name": "TF155 (peptide)", "chain": "AACDDPRVDRWYCQFVEG"}, "B41": {"name": "TF58 (peptide)", "chain": "EGTLCDDPRIDRWYCMFSGV"}, "B42": {"name": "TF156 (peptide)", "chain": "CDDPRVDRWYCQFVEG"}, "B43": {"name": "TF113 (peptide)", "chain": "ALCDDPRVDPWYCQFVEG"}, "B44": {"name": "TF120 (peptide)", "chain": "ALCDEPRVDRWYCQFVEG"}, "B45": {"name": "TF108 (peptide)", "chain": "ALCDAPRVDRWYCQFVEG"}, "B46": {"name": "TF152 (peptide)", "chain": "ALCDDPRVDRHYCQFVEG"}, "B47": {"name": "TF317 (peptide)", "chain": "AVCDDPRVDRWYCQFVEG"}, "B48": {"name": "TF107 (peptide)", "chain": "ALCADPRVDRWYCQFVEG"}, "B49": {"name": "peptide TF151 (peptide)", "peptide": "ALCDNPRIDRWYCQFVEG", "modifications": "disulfide 3-13 (inferred)", "notes": "Chemically synthesized, with the disulfide oxidized"}, "B50": {"name": "TF151-Fc fusion (Fc fusion)", "chain": "SQAQRRAVGALCDNPRIDRWYCQFVEGGGGSSG", "modifications": "cysteine pairing not given here; also: fused to human IgG1 Fc, dimer", "notes": "not shown: Fc portion of the human IgG1"}, "B51": {"name": "peptide TF76 (Ac-ALCDDPRVDRWYCQFVEG-NH2) (peptide)", "peptide": "Ac-ALCDDPRVDRWYCQFVEG-NH2", "modifications": "disulfide 3-13 (inferred)"}}, "note": "Positions of bridges follow the written chain, without caps; N, C: chain ends. No end group written: not given here.", "data": [{"biological_target": "T1, recombinant human Factor VIIa (human), P08709", "T1 chain 1": "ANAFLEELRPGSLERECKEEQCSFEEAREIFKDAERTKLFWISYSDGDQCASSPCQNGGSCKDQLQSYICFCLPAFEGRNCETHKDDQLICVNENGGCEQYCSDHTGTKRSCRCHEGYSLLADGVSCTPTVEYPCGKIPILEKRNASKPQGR", "T1 chain 2": "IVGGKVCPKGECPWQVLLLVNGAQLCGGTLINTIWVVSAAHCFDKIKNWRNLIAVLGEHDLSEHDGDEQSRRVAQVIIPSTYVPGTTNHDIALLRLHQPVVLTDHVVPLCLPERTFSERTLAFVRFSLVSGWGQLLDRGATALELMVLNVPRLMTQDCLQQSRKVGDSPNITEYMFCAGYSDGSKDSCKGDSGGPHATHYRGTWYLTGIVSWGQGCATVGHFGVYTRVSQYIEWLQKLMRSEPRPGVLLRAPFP", "experiment": "competition ELISA", "settings": "modification not given", "units": {"IC50": "nM"}, "values": [{"binder": "B1", "IC50": 438}, {"binder": "B2", "IC50": 359}, {"binder": "B3", "IC50": 110}, {"binder": "B4", "IC50": 75000}, {"binder": "B5", "IC50": 20000}, {"binder": "B6", "IC50": 123}, {"binder": "B7", "IC50": 8620}, {"binder": "B8", "IC50": 28}, {"binder": "B9", "IC50": 3}, {"binder": "B10", "IC50": 698}, {"binder": "B11", "IC50": "> 50000"}, {"binder": "B12", "IC50": 257}, {"binder": "B13", "IC50": 485}, {"binder": "B14", "IC50": 168}, {"binder": "B15", "IC50": 32}, {"binder": "B16", "IC50": 100000}, {"binder": "B17", "IC50": 2}, {"binder": "B18", "IC50": 250000}, {"binder": "B19", "IC50": "> 50000"}, {"binder": "B20", "IC50": 330}, {"binder": "B21", "IC50": "> 100000"}, {"binder": "B22", "IC50": 93}, {"binder": "B23", "IC50": 100000}, {"binder": "B24", "IC50": 147}, {"binder": "B25", "IC50": 298}, {"binder": "B26", "IC50": 42000}, {"binder": "B27", "IC50": 20}, {"binder": "B28", "IC50": 24000}, {"binder": "B29", "IC50": 20300}, {"binder": "B30", "IC50": 141}, {"binder": "B31", "IC50": 4960}, {"binder": "B32", "IC50": 85}, {"binder": "B33", "IC50": 248}, {"binder": "B34", "IC50": 396}, {"binder": "B35", "IC50": 5}, {"binder": "B36", "IC50": 716}, {"binder": "B37", "IC50": 2560}, {"binder": "B38", "IC50": 6}, {"binder": "B39", "IC50": 1200}, {"binder": "B40", "IC50": 9780}, {"binder": "B41", "IC50": 2300}, {"binder": "B42", "IC50": 90300}, {"binder": "B43", "IC50": 10500}, {"binder": "B44", "IC50": 109}, {"binder": "B45", "IC50": 104}, {"binder": "B46", "IC50": "> 100000"}, {"binder": "B47", "IC50": 988}, {"binder": "B48", "IC50": 10}]}, {"biological_target": "T2, recombinant human Factor VIIa (human, UniProt P08709 61-212; P08709 213-466)", "T2 construct": "Immobilized directly on microtiter plates at 2 ug/ml; also called FVIIa", "T2 sequence (looked up) 1": "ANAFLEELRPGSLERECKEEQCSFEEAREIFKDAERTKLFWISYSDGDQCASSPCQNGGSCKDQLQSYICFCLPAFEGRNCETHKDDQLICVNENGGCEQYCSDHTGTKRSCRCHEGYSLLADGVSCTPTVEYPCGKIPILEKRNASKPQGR", "T2 sequence (looked up) 2": "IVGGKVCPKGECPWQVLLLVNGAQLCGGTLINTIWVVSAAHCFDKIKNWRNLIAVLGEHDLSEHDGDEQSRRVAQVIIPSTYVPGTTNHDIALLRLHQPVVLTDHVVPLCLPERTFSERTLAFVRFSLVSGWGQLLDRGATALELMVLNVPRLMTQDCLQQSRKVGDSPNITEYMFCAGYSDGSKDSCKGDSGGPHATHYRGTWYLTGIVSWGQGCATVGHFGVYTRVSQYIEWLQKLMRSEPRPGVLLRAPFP", "experiment": "FVIIa Binding ELISA, competition with 20 nM TF147b on immobilized FVIIa", "settings": "not given", "method": "FVIIa Binding ELISA—The ability of peptides to compete with biotinylated versions of TF76 (e.g. TF147b, or other peptides described herein that could be biotinylated as described) for binding to FVIIa was monitored using a FVIIa Binding ELISA or a TF-FVIIa Binding ELISA. Microtiter plates were coated overnight with 2 μg/ml recombinant human FVIIa or 2 μg/ml TF₁₋₂₄₃ (Paborsky, L. R. et al. (1991) J. Biol. Chem. 266: 21911) in 50 mM ammonium bicarbonate pH 9 at 4° C.; all other steps were performed at room temperature. Plates were then blocked with 1% BSA in Assay Buffer (50 mM HEPES, pH 7.2, 5 mM CaCl₂, 150 mM NaCl). […] The microtiter plate was washed 3 times with Assay Buffer plus 0.05% Tween 20 and the biotinylated-peptide bound was detected with a Streptavidin/HRP conjugate (Streptavidin-POD, Roche Molecular Biochemicals). The amount of HRP bound was measured using ABTS/H₂O₂ substrate (Kirkegaard and Perry Laboratories) and monitoring the absorbance at 405 nm. The absorbance at 405 nm was plotted versus the concentration of peptide originally added to the well. Sigmoidal curves were fit to a four parameter equation by nonlinear regression analysis (Marquardt, J. Soc. Indust. Appl. Math. 11:431-441 (1963); the concentration of each peptide required to give a half-maximal signal in the assay was calculated from the curves and is referred to as the IC₅₀ value. […]", "units": {"IC50": "nM"}, "values": [{"binder": "B49", "IC50": 2}, {"binder": "B50", "IC50": 3}]}, {"biological_target": "T3, recombinant human Factor VIIa (human, UniProt P08709 61-212; P08709 213-466)", "T3 chain 1": "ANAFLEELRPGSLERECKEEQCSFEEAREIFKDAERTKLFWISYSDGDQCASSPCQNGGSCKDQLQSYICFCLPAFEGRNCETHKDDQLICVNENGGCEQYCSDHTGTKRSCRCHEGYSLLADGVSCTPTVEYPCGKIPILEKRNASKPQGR", "T3 chain 2": "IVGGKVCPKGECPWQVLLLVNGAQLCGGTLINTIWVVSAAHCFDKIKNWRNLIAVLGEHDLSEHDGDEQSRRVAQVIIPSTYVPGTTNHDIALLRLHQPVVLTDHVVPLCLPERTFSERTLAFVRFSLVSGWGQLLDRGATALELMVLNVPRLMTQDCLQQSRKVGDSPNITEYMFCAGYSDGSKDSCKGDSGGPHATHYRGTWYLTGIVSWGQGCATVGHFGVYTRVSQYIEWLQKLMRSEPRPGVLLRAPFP", "experiment": "competition ELISA", "settings": "not given", "units": {"IC50": "nM"}, "values": [{"binder": "B51", "IC50": 21}]}]}
